Test results published in publication PMC4266924.
“And” between values parts separate entries of the source, which are not always exact repeats. Equal values may be shown once.

How the values were obtained:
[1] = target: full-length, untagged 18.5-kDa murine MBP (A1-R168) (mouse); assay: ITC; Fyn-SH3 (0.7-1.3 mM) injected into the cell with MBP (45-80 uM); 20 mM HEPES, 100 mM NaCl, pH 7.4; 37 °C; 2 independent measurements; one-set of sites model; apparent values, first 3-4 points excluded (aggregation)
[2] = target: full-length, untagged 18.5-kDa murine MBP (A1-R168) (mouse); assay: ITC; Fyn-SH3 (0.7-1.3 mM) injected into the cell with MBP (45-80 uM); 20 mM HEPES, 100 mM NaCl, pH 7.4; 22 °C; 3 independent measurements; one-set of sites model; apparent values, first 3-4 points excluded (aggregation)
[3] = target: xα2(S38–S107) peptide of murine 18.5 kDa myelin basic protein (mouse); assay: NMR titration; unlabelled Fyn–SH3 titrated into 0.8 mM 15N-labelled xα2-peptide; 2D 15N-HSQC; 20 mM Hepes, 100 mM NaCl, 10% 2H2O, pH 7.4; molar ratios 1:0 to 1:1.2; fractional saturation fit of Y65 and T95 shifts; KD values are only estimates

Chain of full-length, untagged 18.5-kDa murine MBP (A1-R168) (mouse) (P02686 other isoform, or with tags, fused parts or gaps): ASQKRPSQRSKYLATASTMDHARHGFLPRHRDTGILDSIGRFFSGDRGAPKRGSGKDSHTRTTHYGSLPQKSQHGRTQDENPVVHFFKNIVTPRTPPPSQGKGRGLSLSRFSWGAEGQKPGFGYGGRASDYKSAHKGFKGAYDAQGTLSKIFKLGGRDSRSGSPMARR

Kd [1] [µM] | stoichiometry N [1] | Kd [2] [µM] | stoichiometry N [2] | Kd [3] | Substance
5 | 1.2 | 5 | 0.6 | – | Fyn-SH3 domain (Gallus gallus Fyn, residues 85-142) (from UniProt Q05876 85-142) (domain or fragment)
– | – | – | – | 7.6 µM and 4 µM | Fyn–SH3 domain (Gallus gallus Fyn tyrosine kinase, residues 85–142) (from UniProt Q05876 85-142) (domain or fragment)
